Data from article PMC12311180, “Structure and mechanism of the RalGAP tumor suppressor complex” (Nature Communications, 2025).

Tests used:
[1] = target: T1, RalGAPα2 (RGα2), full length, co-expressed in Expi293F and purified by FLAG affinity (UniProt Q2PPJ7 1-1873); assay: cryo-EM structure; RGα2/RGβ/κB-Ras2 complex from Expi293F, FLAG affinity and Superose 6 in 20 mM HEPES pH 7.5, 150 mM NaCl, 2 mM MgCl2, 1 mM TCEP; single particle analysis of the half-particle, 3.8 Å overall; conditions: both partners purified
T1 construct: RalGAPα2, catalytic α-subunit of the RalGAP2 complex; catalytic asparagine N1742; residues 1-73 not resolved in the map; residue numbers (N1742, R1738, N943) are used together with human patient variants; also called RGα2^fl; source: Expi293F cells, transfected, purified (M2 anti-FLAG beads, 3xFLAG peptide elution; Superose 6 for cryo-EM)

[2] = target: the molecule itself; assay: as above

T1 sequence (Q2PPJ7 whole entry, the tested form may be a part): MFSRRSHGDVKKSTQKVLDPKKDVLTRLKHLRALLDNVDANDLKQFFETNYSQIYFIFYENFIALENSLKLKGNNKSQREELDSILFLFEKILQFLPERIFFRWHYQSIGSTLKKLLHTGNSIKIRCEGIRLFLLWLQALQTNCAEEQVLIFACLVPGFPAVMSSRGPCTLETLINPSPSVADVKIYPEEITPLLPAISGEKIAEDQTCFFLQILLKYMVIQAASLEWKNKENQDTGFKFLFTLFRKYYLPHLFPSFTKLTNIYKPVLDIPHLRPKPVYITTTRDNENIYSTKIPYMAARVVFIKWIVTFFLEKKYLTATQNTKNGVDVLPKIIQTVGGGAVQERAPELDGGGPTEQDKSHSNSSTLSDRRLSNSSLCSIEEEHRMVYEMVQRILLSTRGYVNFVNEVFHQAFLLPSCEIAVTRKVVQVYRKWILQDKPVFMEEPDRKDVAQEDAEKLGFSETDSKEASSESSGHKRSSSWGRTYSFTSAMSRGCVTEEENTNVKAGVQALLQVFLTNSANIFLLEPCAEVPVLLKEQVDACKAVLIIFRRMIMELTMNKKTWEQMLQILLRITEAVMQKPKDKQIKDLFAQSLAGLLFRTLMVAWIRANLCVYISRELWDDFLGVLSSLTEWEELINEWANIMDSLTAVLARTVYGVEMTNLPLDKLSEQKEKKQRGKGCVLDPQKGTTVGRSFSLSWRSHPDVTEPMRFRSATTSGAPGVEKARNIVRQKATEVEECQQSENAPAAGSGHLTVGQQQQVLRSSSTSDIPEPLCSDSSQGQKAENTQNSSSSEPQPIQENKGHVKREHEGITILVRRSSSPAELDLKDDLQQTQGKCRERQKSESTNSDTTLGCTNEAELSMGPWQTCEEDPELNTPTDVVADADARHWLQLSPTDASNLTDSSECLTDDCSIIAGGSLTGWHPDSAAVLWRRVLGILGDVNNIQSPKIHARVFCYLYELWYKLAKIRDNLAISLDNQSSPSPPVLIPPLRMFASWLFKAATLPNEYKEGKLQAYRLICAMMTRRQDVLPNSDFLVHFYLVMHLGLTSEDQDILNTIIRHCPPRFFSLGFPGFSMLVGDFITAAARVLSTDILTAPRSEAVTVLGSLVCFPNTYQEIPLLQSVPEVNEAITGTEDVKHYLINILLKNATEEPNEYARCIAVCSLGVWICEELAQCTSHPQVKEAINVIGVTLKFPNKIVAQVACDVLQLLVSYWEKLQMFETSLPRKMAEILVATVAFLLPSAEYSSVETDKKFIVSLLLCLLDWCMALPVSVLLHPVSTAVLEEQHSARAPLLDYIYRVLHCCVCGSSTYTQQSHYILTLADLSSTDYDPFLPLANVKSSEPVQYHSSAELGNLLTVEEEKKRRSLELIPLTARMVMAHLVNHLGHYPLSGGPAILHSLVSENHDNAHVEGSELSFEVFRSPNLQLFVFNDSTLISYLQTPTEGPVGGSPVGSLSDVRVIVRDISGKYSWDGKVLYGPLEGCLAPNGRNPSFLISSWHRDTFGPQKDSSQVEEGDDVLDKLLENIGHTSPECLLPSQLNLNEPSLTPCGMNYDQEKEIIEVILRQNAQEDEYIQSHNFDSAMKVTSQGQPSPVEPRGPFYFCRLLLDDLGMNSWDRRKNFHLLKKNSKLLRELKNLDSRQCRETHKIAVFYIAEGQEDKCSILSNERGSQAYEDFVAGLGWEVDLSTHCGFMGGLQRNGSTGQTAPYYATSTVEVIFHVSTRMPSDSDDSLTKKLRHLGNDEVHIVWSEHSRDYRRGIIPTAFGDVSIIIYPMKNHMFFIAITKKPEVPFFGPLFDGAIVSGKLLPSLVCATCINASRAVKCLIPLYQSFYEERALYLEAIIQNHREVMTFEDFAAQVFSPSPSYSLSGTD

- binding result [1]: binds
B1: RalGAPβ (RGβ), full length, co-expressed in Expi293F and co-purified with FLAG-RGα2 (natural protein, UniProt Q86X10 1-1494, looked up)
chain: MYSEWRSLHLVIQNDQGHTSVLHSYPESVGREVANAVVRPLGQVLGTPSVAGSENLLKTDKEVKWTMEVICYGLTLPLDGETVKYCVDVYTDWIMALVLPKDSIPLPVIKEPNQYVQTILKHLQNLFVPRQEQGSSQIRLCLQVLRAIQKLARESSLMARETWEVLLLFLLQINDILLAPPTVQGGIAENLAEKLIGVLFEVWLLACTRCFPTPPYWKTAKEMVANWRHHPAVVEQWSKVICALTSRLLRFTYGPSFPAFKVPDEDASLIPPEMDNECVAQTWFRFLHMLSNPVDLSNPAIISSTPKFQEQFLNVSGMPQELNQYPCLKHLPQIFFRAMRGISCLVDAFLGISRPRSDSAPPTPVNRLSMPQSAAVSTTPPHNRRHRAVTVNKATMKTSTVSTAHASKVQHQTSSTSPLSSPNQTSSEPRPLPAPRRPKVNSILNLFGSWLFDAAFVHCKLHNGINRDSSMTAITTQASMEFRRKGSQMSTDTMVSNPMFDASEFPDNYEAGRAEACGTLCRIFCSKKTGEEILPAYLSRFYMLLIQGLQINDYVCHPVLASVILNSPPLFCCDLKGIDVVVPYFISALETILPDRELSKFKSYVNPTELRRSSINILLSLLPLPHHFGTVKSEVVLEGKFSNDDSSSYDKPITFLSLKLRLVNILIGALQTETDPNNTQMILGAMLNIVQDSALLEAIGCQMEMGGGENNLKSHSRTNSGISSASGGSTEPTTPDSERPAQALLRDYALNTDSAAGLLIRSIHLVTQRLNSQWRQDMSISLAALELLSGLAKVKVMVDSGDRKRAISSVCTYIVYQCSRPAPLHSRDLHSMIVAAFQCLCVWLTEHPDMLDEKDCLKEVLEIVELGISGSKSKNNEQEVKYKGDKEPNPASMRVKDAAEATLTCIMQLLGAFPSPSGPASPCSLVNETTLIKYSRLPTINKHSFRYFVLDNSVILAMLEQPLGNEQNDFFPSVTVLVRGMSGRLAWAQQLCLLPRGAKANQKLFVPEPRPVPKNDVGFKYSVKHRPFPEEVDKIPFVKADLSIPDLHEIVTEELEERHEKLRSGMAQQIAYEIHLEQQSEEELQKRSFPDPVTDCKPPPPAQEFQTARLFLSHFGFLSLEALKEPANSRLPPHLIALDSTIPGFFDDIGYLDLLPCRPFDTVFIFYMKPGQKTNQEILKNVESSRTVQPHFLEFLLSLGWSVDVGRHPGWTGHVSTSWSINCCDDGEGSQQEVISSEDIGASIFNGQKKVLYYADALTEIAFVVPSPVESLTDSLESNISDQDSDSNMDLMPGILKQPSLTLELFPNHTDNLNSSQRLSPSSRMRKLPQGRPVPPLGPETRVSVVWVERYDDIENFPLSELMTEISTGVETTANSSTSLRSTTLEKEVPVIFIHPLNTGLFRIKIQGATGKFNMVIPLVDGMIVSRRALGFLVRQTVINICRRKRLESDSYSPPHVRRKQKITDIVNKYRNKQLEPEFYTSLFQEVGLKNCSS
notes: RalGAPβ, common regulatory β-subunit of the RalGAP complexes; In the RalGAP tetramer two RGα2/RGβ heterodimers are joined by two RGβ; also called RGβ^fl; RGβ^WT; source: Expi293F cells, transfected, co-purified with RGα2 (M2 anti-FLAG beads; Superose 6 for cryo-EM)
- binding result [2]: binds
